Target: RFP-VAP27-1 (Arabidopsis) (UniProt Q8VZ95)
Experiment: FRET or BRET

UniProt Q8VZ95, sequence (Q8VZ95 whole entry): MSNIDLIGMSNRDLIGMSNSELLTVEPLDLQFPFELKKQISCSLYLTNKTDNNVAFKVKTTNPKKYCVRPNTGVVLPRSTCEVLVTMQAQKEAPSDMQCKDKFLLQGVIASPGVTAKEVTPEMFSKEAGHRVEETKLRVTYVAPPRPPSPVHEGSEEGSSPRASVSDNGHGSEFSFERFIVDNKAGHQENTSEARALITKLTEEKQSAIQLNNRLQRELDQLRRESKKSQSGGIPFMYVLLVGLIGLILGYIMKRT

## GFP-TraB1b (natural protein)
  fluorescence lifetime of the GFP donor with the RFP acceptor: 2.21 ns
